Measured values from US8889130B2, “Treatment of osteoarthritis and pain” (Abbvie Inc., priority 2011, dated 2014).

B1: DVD2-Ig: DVD-Ig as DVD1-Ig but with linkers ADAAP (light chain) and AKTTPP (heavy chain) (antibody)
VH: MQLSGLTSEDSAMYFCVRFPTGNDYYAMDYWGQGTSVTVSSAKTTPPQIQLVQSGPELKKPGETVKISCKASGYTFRNYGMNWVKQAPGKDLKRMAWINTYTGESTYADDFKGRFAFSLETSASTAYLQINNLKNEDTATYFCARGIYYYGSSYAMDYWGQGTSVTVSS
VL: PVEADDAATYYCQQNNEDPFTFGSGTKLEIKRADAAPNIQMTQTTSSLSASLGDRVTISCRASQDISNCLNWYQQKPDGTVKLLIYYTSRLHSGVPSRFSGSGSGTDYSLTISNLEQEDIATYFCQQGKTLPYAFGGGTKLEINR
B2: DVD1-Ig: DVD-Ig binding hIL-1α and hIL-1β; VH/VL of 13F5.G5 fused directly to N-terminus of 3D12.E3 VH/VL, no linker (antibody)
VH: MQLSGLTSEDSAMYFCVRFPTGNDYYAMDYWGQGTSVTVSSQIQLVQSGPELKKPGETVKISCKASGYTFRNYGMNWVKQAPGKDLKRMAWINTYTGESTYADDFKGRFAFSLETSASTAYLQINNLKNEDTATYFCARGIYYYGSSYAMDYWGQGTSVTVSS
VL: PVEADDAATYYCQQNNEDPFTFGSGTKLEIKRNIQMTQTTSSLSASLGDRVTISCRASQDISNCLNWYQQKPDGTVKLLIYYTSRLHSGVPSRFSGSGSGTDYSLTISNLEQEDIATYFCQQGKTLPYAFGGGTKLEINRR

Assay: Size exclusion chromatography (SEC): physical homogeneity and in vitro stability
Format: physicochemical
Details: for Ab (intact antibody) / Agg (aggregates) / Frgm (fragments): 0.2-0.4 mg/ml in PBS; for Ab (intact antibody) / Agg (aggregates) / Frgm (fragments) / aggregation and fragmentation in stability analysis: SEC; for aggregation and fragmentation in stability analysis: PBS, freeze-thaw, 4, 25, 40° C. for 4 and 8 weeks; for SEC profile of purified protein (physical homogeneity): purified protein in PBS
Description: For measuring molecular weight (MW) of light and heavy chains of DVD-Ig binding protein, 10 μL of DVD-Ig molecule (0.8 μg/μL) was reduced by 1.0 M DTT solution (5 μL). A PLRP-S, 8μ, 4000 A, and 1×150 mm protein column (Michrom BioResource, Auburn, Mass.) was used to separate heavy and light chains of DVD-Ig molecule. Agilent HP1100 Capillary HPLC (Agilent Technologies Inc., Pala Alto, Calif.) was used with the mass spectrometer QSTAR (Applied Biosystems, Foster City, Calif.). The valco valve was set at 10 minutes to switch the flow from waste to MS for desalting sample. Buffer A was 0.02% TFA, 0.08% FA, 0.1% ACN and 99.8% HPLC-H2O. Buffer B contained 0.02% TFA, 0.08% FA, 0.1% HPLC-H2O, and 99.8% ACN. The HPLC flow rate was 50 μL/minute and the sample injection volume was […]. The temperature of the column oven was set at 60° C., and separation gradient was: 5% B for 5 minutes; 5% B to 65% B for 35 minutes; 65% B to 95% B for another 5 minutes, and 95% B to 5% B for 5 minutes. TOFMS scan was from 800 to 2500 amu, and cycles were 3600. To determine the MW of full length DVD-Ig binding protein, a Protein MicroTrap cartridge (Michrom BioResource, Auburn, Mass.) was used for desalting the sample. The HPLC gradient was: 5% B for 5 minutes; 5% B to 95% B in 1 minute; and from 95% B to 5% B in another 4 minutes. The QSTAR TOFMS scan was from 2000 to 3500 amu, and cycles were 899. All MS raw data were analyzed using the Analyst QS software (Applied Biosystems). For SEC analysis of the DVD-Ig binding protein, purified DVD-Ig binding protein and chimeric Abs, in PBS, were applied on a Superose 6 10/300 G2, 300×10 mm column (Amersham Bioscience, Piscataway, N.J.). An HPLC instrument, Model 10A (Shimadzu, Columbia, Md.) was used for SEC. All proteins were determined using UV detection at 280 nm and 214 nm. The elution was isocratic at a flow rate of 0.5 mL/minute. For stability study, samples in the concentration range of 0.2-0.4 mg/ml in PBS underwent 3 freeze-thaw cycles between −80° C. and 25° C., or were incubated at 4° C., 25° C., or 40° C., for 4 weeks and 8 weeks, followed by SEC analysis.
In order to determine the precise molecular weight of the DVD-Ig binding proteins, mass spectrometry was employed. […] To further study the physical properties of DVD-Ig binding protein in solution, size exclusion chromatography (SEC) was used to analyze each protein.
The physical stability of DVD-Ig was tested as follows. Purified antibodies in the concentration range of 0.2-0.4 mg/ml in PBS underwent 3 freeze-thaw cycles between −80° C. and 25° C., or were incubated at 4° C., 25° C., or 40° C., for 4 weeks and 8 weeks, followed by analysis using size exclusion chromatography (SEC) analysis (see Table 12).

[1] = 3xFreeze-Thaw between −80° C. and 25° C.

Row | Molecule | Ab (intact antibody) [1] | Agg (aggregates) [1] | Frgm (fragments) [1] | Ab (intact antibody) (4° C. @ 4 Wks) | Agg (aggregates) (4° C. @ 4 Wks) | Frgm (fragments) (4° C. @ 4 Wks) | Ab (intact antibody) (4° C. @ 8 Wks) | Agg (aggregates) (4° C. @ 8 Wks) | Frgm (fragments) (4° C. @ 8 Wks) | Ab (intact antibody) (25° C. @ 4 Wks) | Agg (aggregates) (25° C. @ 4 Wks) | Frgm (fragments) (25° C. @ 4 Wks) | Ab (intact antibody) (25° C. @ 8 Wks) | Agg (aggregates) (25° C. @ 8 Wks) | Frgm (fragments) (25° C. @ 8 Wks) | Ab (intact antibody) (40° C. @ 4 Wks) | Agg (aggregates) (40° C. @ 4 Wks) | Frgm (fragments) (40° C. @ 4 Wks) | Ab (intact antibody) (40° C. @ 8 Wks) | Agg (aggregates) (40° C. @ 8 Wks) | other results
1 | B1 | 100.0 percentage | 0.0 percentage | 0.0 percentage | 100.0 percentage | 0.0 percentage | 0.0 percentage | 100.0 percentage | 0.0 percentage | 0.0 percentage | 100.0 percentage | 0.0 percentage | 0.0 percentage | 100.0 percentage | 0.0 percentage | 0.0 percentage | 100.0 percentage | 0.0 percentage | 0.0 percentage | 100.0 percentage | 0.0 percentage | Frgm (fragments) (40° C. @ 8 Wks): 0.0 percentage; aggregation and fragmentation in stability analysis: Neither aggregation nor fragmentation was detected; maintained as intact monomeric molecule (all conditions tested (freeze-thaw; 4, 25, 40° C. for 4 and 8 weeks)): 100%; SEC profile of purified protein (physical homogeneity): a single peak
2 | B2 | 53.50 percentage | 46.50 percentage | 0.00 percentage | 56.63 percentage | 42.43 percentage | 0.94 percentage | 56.91 percentage | 38.18 percentage | 4.91 percentage | 54.34 percentage | 45.66 percentage | 0.00 percentage | 67.39 percentage | 24.42 percentage | 8.19 percentage | 59.42 percentage | 36.70 percentage | 3.88 percentage | 67.16 percentage | 20.55 percentage | Frgm (fragments) (40° C. @ 8 Wks): 12.29 percentage; aggregation and fragmentation in stability analysis: showed aggregations in PBS under different conditions; SEC profile of purified protein (physical homogeneity): a major peak as well as a shoulder peak on the right
